The target of one assay is T1, AaADH2 (Artemisia annua, UniProt E5DD06).
T1 construct: gene Adh2
T1 sequence (E5DD06 1-265): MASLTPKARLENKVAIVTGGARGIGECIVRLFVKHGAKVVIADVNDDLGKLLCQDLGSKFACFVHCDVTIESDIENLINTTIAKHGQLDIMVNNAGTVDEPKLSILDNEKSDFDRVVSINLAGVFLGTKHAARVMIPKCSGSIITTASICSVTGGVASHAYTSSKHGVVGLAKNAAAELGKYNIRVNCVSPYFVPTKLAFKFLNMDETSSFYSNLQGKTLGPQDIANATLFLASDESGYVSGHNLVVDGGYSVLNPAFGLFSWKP
Put plainly: spectrophotometric cofactor use. The assay is classed as biochemical.

A further assay concerns the target T2, SrBDH1 (Salvia rosmarinus, UniProt A0A8K1HPF5).
T2 construct: N-terminal His-tag (pET15b), codon-optimised, E. coli BL21(DE3); homotetramer by SEC/MALS
T2 sequence (A0A8K1HPF5 1-270): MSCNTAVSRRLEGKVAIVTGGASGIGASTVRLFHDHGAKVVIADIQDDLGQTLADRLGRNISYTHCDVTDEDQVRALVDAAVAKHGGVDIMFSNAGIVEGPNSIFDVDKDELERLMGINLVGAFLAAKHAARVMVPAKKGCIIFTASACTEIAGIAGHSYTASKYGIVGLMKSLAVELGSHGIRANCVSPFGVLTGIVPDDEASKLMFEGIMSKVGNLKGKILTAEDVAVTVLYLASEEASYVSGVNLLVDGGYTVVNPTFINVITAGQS
Kind of assay: X-ray crystal structure of binary complex ([…] Å). The class given is binding. As to conditions: NAD+ co-purified with the enzyme; two crystal forms (high salt; PO/OH).

For assay [1], the target named is Borneol-type dehydrogenase 1 from Salvia rosmarinus (Salvia rosmarinus). Put plainly: crystal structure; sitting-drop vapor diffusion at 18 °C; two conditions: high NaCl (2.7-3.2 M, Bis-Tris pH 5.5-7.2) and pentaerythritol propoxylate (PO/OH, HEPES pH 7.0-7.8); tetramer in both.
The target is the same in assay [2]. Put plainly: SEC-MALS; Superdex 200 increase 10/300 with miniDAWN TREOS and refractive index detector; 18 °C.
For assay [3] the target is unchanged. Put plainly: SEC; HiLoad 16/60 Superdex 200; Tris-HCl 100 mM, 500 mM NaCl, pH 8; 1 mL/min; calibrated with mass standards (44-440 kDa).
Assay [4] addresses Borneol-type dehydrogenase 2 from Salvia rosmarinus (Salvia rosmarinus). Described as above.
Assay [5] addresses Borneol-type dehydrogenase 3 from Salvia officinalis (Salvia officinalis L.). The assay is described as above.

`NC(=O)c1ccc[n+]([C@@H]2O[C@H](COP(=O)(O)OP(=O)(O)OC[C@H]3O[C@@H](n4cnc5c(N)ncnc54)[C@H](OP(=O)(O)O)[C@@H]3O)[C@@H](O)[C@H]2O)c1` [NADP^+]: the spectrophotometric cofactor use result on AaADH2 is “AaADH2 was the only enzyme also capable of using NADP^+”.

As to `NC(=O)c1ccc[n+]([C@@H]2O[C@H](COP(=O)(O)OP(=O)(O)OC[C@H]3O[C@@H](n4cnc5c(N)ncnc54)[C@H](O)[C@@H]3O)[C@@H](O)[C@H]2O)c1` [NAD^+], on SrBDH1, the “X-ray crystal structure of binary complex (2.8 Å)” value is recorded as “the structure represents the binary complex (SrBDH1 ⋅ NAD^+ /high salt)”.

“Borneol-type dehydrogenase 1 from Salvia rosmarinus (enzyme)”: the stoichiometry N in assay [1], in assay [2] and in assay [3] was 4 in each case.

“Borneol-type dehydrogenase 2 from Salvia rosmarinus (enzyme)”: the stoichiometry N in assay [4] was found to be 4.

The molecule “Borneol-type dehydrogenase 3 from Salvia officinalis (enzyme)” had a stoichiometry N in assay [5] of 4.

Values taken from PMC8261865, “A Structural View on the Stereospecificity of Plant Borneol‐Type Dehydrogenases” (Chemcatchem, 2021).
